Laboratory results reported in the supplement of paper PMC9112550, “Optimization of the antimicrobial peptide Bac7 by deep mutational scanning” (BMC Biology, 2022).

Tested on: Escherichia coli TOP10
Experiment: shrunken log2 fold change of peptide-encoding DNA abundance (4.5 h post-induction vs induction); higher = less antimicrobial activity (less host growth inhibition)
Conditions: time post-induction: 4.5 h; library: site-saturation at positions 5, 18, 19, 20
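Further: peptides expressed intracellularly from a pBAD plasmid library in pooled LB shake-flask culture, induced with 0.3% L-arabinose, DNA abundance read by NGS, three biological replicates, DESeq2 with apeglm shrinkage.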

| Sequence | shrunken log2 fold change |
| --- | --- |
| RRIRRRPPRLPRPRPRPAECPRP | -0.00699 |
| RRIRGRPPRLPRPRPRPLCPPRP | 0.422 |
| RRIRCRPPRLPRPRPRPRCFPRP | -0.158 |
| RRIRWRPPRLPRPRPRPVSKPRP | 0.0519 |
| RRIRIRPPRLPRPRPRPSFVPRP | -0.509 |
| RRIRPRPPRLPRPRPRPECQPRP | 0.126 |
| RRIRARPPRLPRPRPRPCYAPRP | -0.26 |
| RRIRKRPPRLPRPRPRPIMTPRP | -0.111 |
| RRIRARPPRLPRPRPRPAYGPRP | 0.0552 |
| RRIRNRPPRLPRPRPRPTFAPRP | 0.343 |
| RRIRDRPPRLPRPRPRPNWCPRP | 0.0171 |
| RRIRERPPRLPRPRPRPNACPRP | -0.00102 |
| RRIRARPPRLPRPRPRPVKNPRP | 0.384 |
| RRIRVRPPRLPRPRPRPGQTPRP | -0.00176 |
| RRIRQRPPRLPRPRPRPNMHPRP | -0.34 |
| RRIRKRPPRLPRPRPRPCYTPRP | -0.0178 |
| RRIRGRPPRLPRPRPRPNPMPRP | 0.17 |
| RRIRIRPPRLPRPRPRPTENPRP | 0.0227 |
| RRIRKRPPRLPRPRPRPFDIPRP | -0.0132 |
| RRIRYRPPRLPRPRPRPIIIPRP | -0.161 |
| RRIRWRPPRLPRPRPRPAMVPRP | 0.483 |
| RRIRERPPRLPRPRPRPSINPRP | -0.798 |
| RRIRLRPPRLPRPRPRPYDDPRP | -0.167 |
| RRIRCRPPRLPRPRPRPGKNPRP | -0.133 |
| RRIRARPPRLPRPRPRPISPPRP | -0.141 |

| Sequence | shrunken log2 fold change |
| --- | --- |
| RRIRRRPPRLPRPRPRPFCAPRP | 0.488 |
| RRIRWRPPRLPRPRPRPFNCPRP | -0.118 |
| RRIRRRPPRLPRPRPRPVIVPRP | -0.114 |
| RRIRPRPPRLPRPRPRPSQHPRP | -0.278 |
| RRIRIRPPRLPRPRPRPLNRPRP | -0.476 |
| RRIRPRPPRLPRPRPRPYGPPRP | -0.37 |
| RRIRCRPPRLPRPRPRPRYQPRP | -0.319 |
| RRIRCRPPRLPRPRPRPPFGPRP | 0.213 |
| RRIRTRPPRLPRPRPRPDRVPRP | -0.0605 |
| RRIRVRPPRLPRPRPRPWCCPRP | -0.203 |
| RRIRLRPPRLPRPRPRPIIWPRP | -0.000825 |
| RRIRHRPPRLPRPRPRPYTAPRP | -0.735 |
| RRIRQRPPRLPRPRPRPFCTPRP | -0.246 |
| RRIRPRPPRLPRPRPRPVSWPRP | 0.704 |
| RRIRFRPPRLPRPRPRPEDDPRP | -0.18 |
| RRIRCRPPRLPRPRPRPFNCPRP | -1.32 |
| RRIRERPPRLPRPRPRPPSLPRP | -0.0799 |
| RRIRLRPPRLPRPRPRPNTCPRP | -0.823 |
| RRIRIRPPRLPRPRPRPLEQPRP | -0.419 |
| RRIRFRPPRLPRPRPRPPLNPRP | 0.0971 |
| RRIRRRPPRLPRPRPRPYTNPRP | -0.95 |
| RRIRGRPPRLPRPRPRPTTCPRP | 0.849 |
| RRIRERPPRLPRPRPRPIKEPRP | 0.0101 |
| RRIRLRPPRLPRPRPRPNVIPRP | -0.106 |
| RRIRYRPPRLPRPRPRPPAWPRP | -0.0773 |

| Sequence | shrunken log2 fold change |
| --- | --- |
| RRIRLRPPRLPRPRPRPLGMPRP | 0.0609 |
| RRIRGRPPRLPRPRPRPGEIPRP | 0.727 |
| RRIRVRPPRLPRPRPRPHHQPRP | -0.427 |
| RRIRWRPPRLPRPRPRPWLVPRP | -0.237 |
| RRIRIRPPRLPRPRPRPGYPPRP | -0.173 |
| RRIRARPPRLPRPRPRPYPIPRP | -0.249 |
| RRIRSRPPRLPRPRPRPGVNPRP | -0.398 |
| RRIRRRPPRLPRPRPRPHFNPRP | -0.11 |
| RRIRSRPPRLPRPRPRPRFQPRP | 0.233 |
| RRIRWRPPRLPRPRPRPSLKPRP | 0.0451 |
| RRIRSRPPRLPRPRPRPPHCPRP | 0.105 |
| RRIRFRPPRLPRPRPRPNYIPRP | -0.587 |
| RRIRQRPPRLPRPRPRPTDWPRP | 0.0907 |
| RRIRQRPPRLPRPRPRPHWDPRP | -0.224 |
| RRIRARPPRLPRPRPRPGGLPRP | 0.936 |
| RRIRTRPPRLPRPRPRPQGTPRP | 0.0402 |
| RRIRMRPPRLPRPRPRPSYFPRP | -0.293 |
| RRIRNRPPRLPRPRPRPMMRPRP | 0.0611 |
| RRIRWRPPRLPRPRPRPLYVPRP | -0.836 |
| RRIRNRPPRLPRPRPRPCIMPRP | -0.135 |
| RRIRQRPPRLPRPRPRPRQFPRP | -0.121 |
| RRIRPRPPRLPRPRPRPVVAPRP | 0.578 |
| RRIRFRPPRLPRPRPRPVDGPRP | 0.148 |
| RRIRDRPPRLPRPRPRPEPDPRP | 1.33 |
| RRIRYRPPRLPRPRPRPCCAPRP | -0.437 |

| Sequence | shrunken log2 fold change |
| --- | --- |
| RRIRHRPPRLPRPRPRPHPKPRP | 0.0027 |
| RRIRCRPPRLPRPRPRPFKDPRP | -0.54 |
| RRIRYRPPRLPRPRPRPMKMPRP | -0.528 |
| RRIRDRPPRLPRPRPRPVEFPRP | -0.0374 |
| RRIRSRPPRLPRPRPRPHSEPRP | -0.0351 |
| RRIRARPPRLPRPRPRPSILPRP | -0.156 |
| RRIRSRPPRLPRPRPRPDDAPRP | 0.162 |
| RRIRVRPPRLPRPRPRPVHMPRP | -0.0089 |
| RRIRIRPPRLPRPRPRPDPTPRP | -0.0575 |
| RRIRWRPPRLPRPRPRPLIWPRP | 0.515 |
| RRIRERPPRLPRPRPRPRRIPRP | -0.00822 |
| RRIRNRPPRLPRPRPRPIFWPRP | -0.162 |
| RRIRSRPPRLPRPRPRPFTCPRP | -0.0185 |
| RRIRHRPPRLPRPRPRPKEFPRP | -0.0336 |
| RRIRARPPRLPRPRPRPQWSPRP | 0.245 |
| RRIRRRPPRLPRPRPRPQGYPRP | -0.0842 |
| RRIRFRPPRLPRPRPRPRSCPRP | 0.155 |
| RRIRYRPPRLPRPRPRPAQVPRP | -0.0734 |
| RRIRQRPPRLPRPRPRPRGGPRP | 0.484 |
| RRIRRRPPRLPRPRPRPETPPRP | 1.12 |
| RRIRCRPPRLPRPRPRPALGPRP | 0.38 |
| RRIRGRPPRLPRPRPRPLYDPRP | 0.135 |
| RRIRQRPPRLPRPRPRPCDTPRP | -0.435 |
| RRIRGRPPRLPRPRPRPAQQPRP | 0.57 |
| RRIRYRPPRLPRPRPRPRSAPRP | -0.0647 |

| Sequence | shrunken log2 fold change |
| --- | --- |
| RRIRSRPPRLPRPRPRPCIKPRP | -0.0801 |
| RRIRERPPRLPRPRPRPERIPRP | -0.0271 |
| RRIRERPPRLPRPRPRPELCPRP | 0.511 |
| RRIRPRPPRLPRPRPRPAPKPRP | 0.702 |
| RRIRERPPRLPRPRPRPNMTPRP | -0.276 |
| RRIRPRPPRLPRPRPRPDTDPRP | -0.158 |
| RRIRPRPPRLPRPRPRPHALPRP | -0.376 |
| RRIRWRPPRLPRPRPRPAPFPRP | 0.0259 |
| RRIRPRPPRLPRPRPRPVWKPRP | 0.218 |
| RRIRHRPPRLPRPRPRPGHEPRP | -0.133 |
| RRIRIRPPRLPRPRPRPRDTPRP | -0.534 |
| RRIRNRPPRLPRPRPRPIHDPRP | 0.177 |
| RRIRHRPPRLPRPRPRPTCYPRP | -0.272 |
| RRIRHRPPRLPRPRPRPGRDPRP | 0.135 |
| RRIRWRPPRLPRPRPRPPCGPRP | 0.255 |
| RRIRRRPPRLPRPRPRPCMKPRP | -0.0288 |
| RRIRERPPRLPRPRPRPHWKPRP | -0.0167 |
| RRIRVRPPRLPRPRPRPFPPPRP | -0.0462 |
| RRIRARPPRLPRPRPRPDTCPRP | -0.162 |
| RRIRWRPPRLPRPRPRPDDWPRP | 0.288 |
| RRIRLRPPRLPRPRPRPHVKPRP | -0.333 |
| RRIRARPPRLPRPRPRPYWLPRP | -0.148 |
| RRIRDRPPRLPRPRPRPCNKPRP | -0.764 |
| RRIRLRPPRLPRPRPRPPLQPRP | 0.67 |
| RRIRFRPPRLPRPRPRPWLEPRP | 0.0931 |

| Sequence | shrunken log2 fold change |
| --- | --- |
| RRIRNRPPRLPRPRPRPDQPPRP | 0.00646 |
| RRIRRRPPRLPRPRPRPIYHPRP | -0.258 |
| RRIRSRPPRLPRPRPRPIGSPRP | 0.136 |
| RRIRARPPRLPRPRPRPGSVPRP | 0.301 |
| RRIRSRPPRLPRPRPRPWYAPRP | -0.253 |
| RRIRRRPPRLPRPRPRPFFVPRP | 0.283 |
| RRIRWRPPRLPRPRPRPLHTPRP | 0.0467 |
| RRIRCRPPRLPRPRPRPFQGPRP | 0.203 |
| RRIRRRPPRLPRPRPRPDGQPRP | 0.298 |
| RRIRDRPPRLPRPRPRPMEMPRP | 0.0165 |
| RRIRQRPPRLPRPRPRPMDMPRP | -0.274 |
| RRIRSRPPRLPRPRPRPIHVPRP | -0.154 |
| RRIRSRPPRLPRPRPRPKQVPRP | 0.0497 |
| RRIRFRPPRLPRPRPRPMMFPRP | 0.126 |
| RRIRERPPRLPRPRPRPSRQPRP | -0.214 |
| RRIRERPPRLPRPRPRPLLWPRP | -0.0136 |
| RRIRSRPPRLPRPRPRPHLVPRP | -0.118 |
| RRIRARPPRLPRPRPRPLTAPRP | 0.542 |
| RRIRERPPRLPRPRPRPIDAPRP | 0.0409 |
| RRIRLRPPRLPRPRPRPIAWPRP | 0.0351 |
| RRIRHRPPRLPRPRPRPYLYPRP | -0.482 |
| RRIRWRPPRLPRPRPRPGNDPRP | 0.895 |
| RRIRIRPPRLPRPRPRPSDCPRP | -0.497 |
| RRIRKRPPRLPRPRPRPQWNPRP | -0.105 |
| RRIRRRPPRLPRPRPRPVQFPRP | 0.0855 |
